The source of these data is publication PMC7164391 (Science (New York, N.Y.), 2020).

Usually Kd stands for a measure of binding affinity in units of concentration.

In the test the target is receptor-binding domain (RBD) of the SARS-CoV spike (S) protein (SARS-CoV, isolate of GenBank ABF65836.1 …, UniProt Q19QX0). To be noted: both partners purified.

B1: CR3022 Fab (Fab, V domains shown)
VH: QMQLVQSGTEVKKPGESLKISCKGSGYGFITYWIGWVRQMPGKGLEWMGIIYPGDSETRYSPSFQGQVTISADKSINTAYLQWSSLKASDTAIYYCAGGSGISTPMDVWGQGTTVTVSS
VL: not shown
As to B1, binding was put at a Kd of 1 ± 0.1 nM.
